To fix the notation:
B1: Methanocaldococcus jannaschii fumarate hydratase β-subunit (enzyme)
chain: MEYTFNKLTKKDVKKLKVGDIVYLNGKIYTARDEAHLKIIEMLKSNEKLPFDLNESIIYHAGPIMKKVNDSWVCVSIGPTTSARMNDVEEEFIKLTNISAIVGKGGMKKELLKTFEDYGVVYLAAPGGCAALLANSVKRVDNVYFLDELGMPEAVWELEVNNFGPLIVAMDSHGNSIYEEVNKKVYEKLNELIGL
B2: Methanocaldococcus jannaschii fumarate hydratase α-subunit (enzyme)
chain: KISDVVVELFREAAIYLPEDVKNALEEAYKKESSEISKNTLKAIIENNKIAEETQVPLCQDTGVPIVFLKIGKNINSSEIMKIIEEIKEGVKKATEEVPLRPNVVHPLTRENFKTNVGLNSPFINIEFDESLDREIEIIAFPKGAGSENMSALKMLKPSDGIEGIKNFVLETIANAGGKPCPPIVVGIGIGGTADVALKLAKKALLRKIGERHRDKEIANLEKELLEKINSLGIGAMGLGGDITALDVFIEIAGCHTASLPVGICIQCWADRRAIKRIKLDAKL
B3: Selenomethionine incorporated Methanocaldococcus jannaschii fumarate hydratase α-subunit (of Se-MjFHαβ) (enzyme)
chain: B2 chain
modifications: selenomethionine incorporated (eleven selenium atoms per functional dimer)

For data set [1], the target named is B2. Briefly: ITC.
Data set [2] concerns the molecule itself. Briefly: SEC.
Data set [3] concerns the molecule itself. Nature of the data set: crystal structure.

On to B1, for which the Kd in data set [1] is 595 ± 19 nM.
As to B2, the “stoichiometry N” value in data set [2] is 2.
For the molecule B3, the binding result in data set [3] is reported as “binds”.
